Reference: IntAct's records for PubMed 15509585

B1: Thioredoxin-like protein slr1139 (Synechocystis sp. (strain PCC 6803 / Kazusa)), P73263 (parent)
chain: MSLLEITDAEFEQETQGQTKPVLVYFWASWCGPCRLMAPAIQAIAKDYGDKLKVLKLEVDPNPAAVAQCKVEGVPALRLFKNNELVMTHEGAIAKPKLLELLKEELDFI
partner: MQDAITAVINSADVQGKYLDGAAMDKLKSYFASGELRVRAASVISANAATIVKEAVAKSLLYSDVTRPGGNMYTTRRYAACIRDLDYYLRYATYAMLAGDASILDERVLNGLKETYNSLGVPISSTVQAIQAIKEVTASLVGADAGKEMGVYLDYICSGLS
B2: Thioredoxin-like protein slr1139 (Synechocystis sp. (strain PCC 6803 / Kazusa)), P73263 (parent)
chain: B1 chain
partner: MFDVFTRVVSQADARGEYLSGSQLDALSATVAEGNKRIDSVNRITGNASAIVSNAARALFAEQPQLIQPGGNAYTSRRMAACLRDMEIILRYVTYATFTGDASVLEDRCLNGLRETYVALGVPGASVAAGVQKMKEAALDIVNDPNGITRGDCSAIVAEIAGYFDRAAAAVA
B3: Thioredoxin-like protein slr1139 (Synechocystis sp. (strain PCC 6803 / Kazusa)), P73263 (parent)
chain: B1 chain
partner: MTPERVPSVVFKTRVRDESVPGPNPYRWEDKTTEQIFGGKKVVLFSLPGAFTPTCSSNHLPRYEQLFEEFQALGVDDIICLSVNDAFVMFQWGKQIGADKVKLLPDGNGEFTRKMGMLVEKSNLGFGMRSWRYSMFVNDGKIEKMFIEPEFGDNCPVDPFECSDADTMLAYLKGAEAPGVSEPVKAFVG

Variants of: B1
Conditions: with apcb_syny3 apcB

**Q.** C34S was tested. Which “effect of a mutation on the interaction” value did it give?
**A.** increasing interaction

Variants of: B2
Conditions: with phcb_syny3 cpcB

**Q.** How did the “effect of a mutation on the interaction” value turn out when C34S was run?
**A.** increasing interaction

Variants of: B3
Conditions: with prx5_syny3 prx5, P73728

**Q.** For C34S, which “effect of a mutation on the interaction” value is on record?
**A.** increasing interaction
